Substitutions are numbered along the chain they refer to.
T1: hLAG-3-mFc融合蛋白 (human, UniProt P18627 23-450)
T1 construct: range 1-450; no cleavage site is stated; also called hLAG-3-mFc重组蛋白; 人LAG-3-mFc重组蛋白; not shown: mouse Fc
T1 sequence (looked up): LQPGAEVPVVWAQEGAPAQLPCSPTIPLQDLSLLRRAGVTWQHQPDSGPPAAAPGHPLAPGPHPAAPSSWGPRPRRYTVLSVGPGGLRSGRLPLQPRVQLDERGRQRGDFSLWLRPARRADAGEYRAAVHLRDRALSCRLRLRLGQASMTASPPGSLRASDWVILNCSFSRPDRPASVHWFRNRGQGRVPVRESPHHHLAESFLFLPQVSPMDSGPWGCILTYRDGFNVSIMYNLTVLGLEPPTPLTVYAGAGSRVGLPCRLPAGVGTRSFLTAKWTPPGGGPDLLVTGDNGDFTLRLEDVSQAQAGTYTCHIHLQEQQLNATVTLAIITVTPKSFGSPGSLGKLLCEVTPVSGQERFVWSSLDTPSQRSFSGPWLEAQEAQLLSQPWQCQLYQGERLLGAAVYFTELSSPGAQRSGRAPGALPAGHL

B1: ch7F10嵌合抗体 (antibody, human IgG4, V domains shown)
VH: EVKLMESGAELVKPGASVKLSCKVSGVNIKDDYMHWVKQRTEQGLEWIGRIDPEDVETKYDPKFQGKATITSDTSSNTGYLQLSSLTSEDTAVYYCARSFYSNYVNYFDQWGQGTTLTVSS
VL: DIVMTQAPKSMSMSVGERVTLSCKASENVGTYVSWFQQKPEQSPKLLIYGASNRYTGVPDRFTGSGSATDFTLTISSVQAEDLADYHCGQSYSYPYTFGGGTKLEIK
B2: ch3A10嵌合抗体 (antibody, human IgG4, V domains shown)
VH: EVQLQQSGAELVRPGASVKLSCTASGFNIKDDYMHWMKQRPEQGLEWIGWIDPENGETEYASKFQGKATITADTYSNTVYLQFSSLTSEDTGVYYCTIFDYWGQGTSLTVSS
VL: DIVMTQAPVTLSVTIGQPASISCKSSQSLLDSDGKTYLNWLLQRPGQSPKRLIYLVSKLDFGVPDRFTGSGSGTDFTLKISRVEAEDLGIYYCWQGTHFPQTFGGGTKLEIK
B3: ch7F1嵌合抗体 (antibody, human IgG4, V domains shown)
VH: EVQLVESGPGLVAPSQSLSITCTVSGFSLTDYAVSWIRQPPGKGLEWLGVVWGDGSTNYHSALISRLIITRDNSKRQVFLKLNSLQTDDTATYYCAKGGGGMDYWGQGTSVTVSS
VL: DIVLSQSPAILSASPGEKVTVTCRASSSVSYMHWFQQKPGSSPKPWIYATSNLASGVPVRFSGSGSGTSYSLTISRVEAEDAATYYCQHYNTNPPTWTFGGGSKLEIK
B4: ch4C8嵌合抗体 (antibody, human IgG4, V domains shown)
VH: EVQLVESGGGLVKIGGSLKLSCAGSGFTFSNYAMSWVRQTPEKRLEWVATITYGTTYTFYSDNVKGRFTISRDNAKNNLSLQMSHLKSEDTAMYYCTRGEYGSSFAYWGQGTLVTVSA
VL: DIVMTQSQKFMSTSVGDRVSITCKASQNVRTAVAWYQQKPGQSPKALIYLASNRHTGVPDRFTGSGSETDFTLTINNVQSEDLADYFCLQHWNYPLTFGGGTKLEIK
B5: ch7C5嵌合抗体 (antibody, V domains shown)
VH: EVQLQQSGAELARPGASVKLSCKASGYTFTSYGISWVKQRTGQGLEWIGEIYPRSDNTYYNGKFKGKATLTADKSSSTAYMELRSLTSEDSAVFFCARRAFYYYGSNYYAMDYWGQGTSVTVSS
VL: DVLMTQTPLFLPVSLGDQASISCRSSQSIVHSNGDTYLEWYLRKPGQSPKLLIFKVSNRFSGVPDRFSGSGSGTDFTLKISRVEAEDLGVYYCFQGSHVPWTFGGGTKLEIK
B6: ch10B4嵌合抗体 (antibody, human IgG4, V domains shown)
VH: B5 VH with T28S, S31N, V37M, S55G, D56G, K74Q, F94Y, Y104F
VL: B5 VL with L3V, R43Q, F54Y, E110A

Target: T1, hLAG-3-mFc融合蛋白
Assay: BLI (ForteBio Octet QKe), antibody captured on AHC probe, hLAG-3-mFc 60 nM in solution, 1:1 fit

Kd [nM]	Binder
0.117	B1
0.128	B2
5.52	B3
0.427	B4
0.365	B5
0.0884	B6

Target: T1, hLAG-3-mFc融合蛋白
Assay: FACS competition: blocking of hLAG-3-mFc (2 ug/ml) binding to HLA on 293/rhHLA cells

IC50 [µg/mL]	Binder
1.21	B1
3.33	B2
11.5	B3
1.28	B4
1.87	B5
2	B6

— CN114907478A (MABWELL SHANGHAI BIOSCIENCE CO LTD, dated 2022)
